Laboratory results as given in the supplement of paper PMC9170038.

Tested on: MS2 coat protein
Test: apparent KD of MS2 coat protein; higher = weaker reporter binding
Details: Eterna round: R107
Summary of the method: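 Each design's apparent KD comes from the median of binding-curve fits to its normalised clusters. Those clusters carried RNA switches transcribed on-chip from Illumina sequencing clusters. SNAP-549-labelled MS2 coat protein was titrated onto them in twofold steps (0.7 or 1.5 nM to 3 µM; per step 0.8–1.5 h down to 10–20 min). Conditions were 100 mM Tris-HCl pH 7.5, 80 mM KCl, 4 mM MgCl2, without or with constant ligand.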

[1] = input ligand: theophylline 20 uM
[2] = input ligand: theophylline 2 mM
[3] = input ligand: tryptophan 2.4 mM

Row | Sequence | apparent KD of MS2 coat protein (input ligand: arginine 13.2 mM) [nM] | apparent KD of MS2 coat protein (input ligand: none) [nM] | apparent KD of MS2 coat protein [1] [nM] | apparent KD of MS2 coat protein [2] [nM] | apparent KD of MS2 coat protein [3] [nM]
1 | UGAUGGUGCGGAAGGAGCGUGUAAGAACAAGAACAUGAGGAUCACCCAUGUAUUAAUUUAACACAGGUAGGUCGCCGUGUUAUUG [11.K] | 29.6 | 35.5 | 39.3 | 29.6 | 20.2
2 | UGGGUAGAAUAGAUAGAUAGAUAAACUGAAGGAGCGAGAAUAAACUCAGGUAGGUCGCAGACAUGAGGAUCACCCAUGUAGAUGG [Same State Arginine A GF15] | 91.1 | 98.8 | 87.2 | 163 | 88.9
3 | GCCAUCGGCGGAAGCCGAUGGGAUACAGAAGGAGCGCGGAUUAACGCAGGUAGGUCGCUGGACAUGAGGAUCACCCAUGUAAUAG [SSAA #9] | 19.2 | 22.8 | 41.9 | 22.5 | 18.5
4 | UAUCGUCAGACGGCCGCCACUAGAACAUGAGGAUCACCCAUGUAGGCGGCCGAUUCCUCAUGAACUAGGACCGGGUCUGACGAAU [(Trp1)-(Ms2)-(T)'-(M)'-(Trp2)_Design12] | 8.18 | 6.6 | 26 | 8.89 | 13.3
5 | CAGGUGGACUGAAGGAGCGAGUCAGGGACUUACAUGAGGAUCACCCAUGUCACGGUCGUCACUCAGGUAGGUCGCAGUUCGCCUC [Diinan] | 113 | 188 | 279 | 628 | 231
6 | AGGAAACAACAUGAGGAUCACCCAUGUGAUACCAGUAUCAAAAGAUACCCUUGGCAGCACACAUGACAUGAGGAUCACCCAUGUA [AstrosSSTheA#2] | 33.2 |  | 52.4 |  | 74.4
7 | UCGCUCUGGGUGAAUCCCAGAGAUAUGGAAGGAGCGGACGAAAGUCCAGGUAGGUCGCCAUCGAACAUGAGGAUCACCCAUGUAC [Same State - Arginine A (Freestyle 27)] | 62.1 | 47.6 | 57.8 | 76.6 | 76.8
8 | UCUUUCUAUUGUGAUACCAGACGUACAUGAGGAUCACCCAUGUUUCAUUCUUGUUUUAAAGUCCCUUGGCAGCACUAUUUGUUCG [JR_Nu_ExcTheophyB_Sub028] | 19.6 |  | 23.9 |  | 15.9
9 | CCUAUGCAGUCGGCCGCCACUGAAAACAGCCUCAAAAUAAAUAUAACAUGAGGAUCACCCAUGUACAGGACCGGGACUGUAUAGG [Ex Tryptophan B 11] | 81 |  | 200 | 180 | 
10 | UAGUUGUAGUCGGCCGCCACUGUGAGCAUGGUUAACAUGAGGAUCACCCAUGUCCCGUACUAUAACAGGACCGGGACGUAGUUGC [#10 Same State - Tryptophan B] | 31.1 |  | 79.4 | 134 | 
11 | AAAAUAUAGACGGCCGCCACUAUAAUCAUGAGGAACAUGAGGAUCACCCAUGUAUGAGGAUCACCUAGGACCGGGUCAUAUAAAA [#24 Exclusion Tryptophan B] | 14.2 | 23.6 | 31.3 | 29.5 | 25.6
12 | ACGAUAGGGCAUGAGGAUCACCCAUGUGAUACCAGCCUGGAAACAGGCCCUUGGCAGCAUUAAUACUCCAAUAACCUAUCGAAUA [TheoAX 17 #MicroSwitchBubble #AlternativeMS2] | 91.5 | 129 | 184 | 864 | 111
13 | UUUGAUUAGAGAAGGAGCGUGAUAUUUAUAUAGUGUGUAUGUACAUGAGGAUCACCCAUGUCACAGGUAGGUCGCUCUGAUAAGG [JR_Nu_ExcArginiB_Sub030] | 14.8 | 13.2 | 21.6 | 13.2 | 16.1
14 | AUGACUUACGGGCGCCAUUUGUAAUAGGAAGGAGCGGCGAGAUAGCCAGGUAGGUCGCCUAUACAUGAGGAUCACCCAUGUCACC [Vegeorbe] | 66.8 | 120 | 103 | 81.8 | 112
15 | AUGCCUAGUGGAAGGAGCGAGGGUCUUCUCAACAUGAGGAUCACCCAUGUUCUUUUAUACCCUCAGGUAGGUCGCCAUUGGGACA [Anenre] | 27.7 | 28.8 | 33.6 | 25.7 | 34.8
16 | GGGAUAUAGGCGGCCGCCACUGAUUUUCAUAUAUAUAUAACAUGAGGAUCACCCAUGUAGAUAUACAGGACCGGGCCUAUAUUUU [aaaD] | 14.8 | 15.2 | 17.4 | 21.1 | 13.5
17 | AAACAUGAGGCGGCCGCCACUGUAUGAACAUGAGGAUCACCCAUGUAUGUACCCAUGUGUGUACACAGGACCGGGCCAUGUGGAU [Exclusion Tryptophan B 4] | 24.8 |  | 32.3 | 27.8 | 
18 | ACAUGAGGAUCACCCAUGUAAUAAUCAGAAGGAGCGUGGAAUAACACAGGUAGGUCGCUGAUGUUUGGUUAAAAUUAUUCGUGAA [JR_ExcArginiA_Sub001] | 12.2 | 13.1 | 16.6 | 14 | 14
19 | GAUCCACAUGAGGAUCACCCAUGUGAGGAUACCAGUACCAGAUCCUACCCUUGGCAGCCUAACCUUCAUUCAACACGAAUAAGAA [theeternabot_sameState_MS2_Theo_A_20] | 13.8 |  | 16.7 |  | 15
20 | UAAUUCACUAUUCACGGUCCGAUGUUCGAUACCAGAUCAUUUCGAAUCCCUUGGCAGCGAUUAACAUGAGGAUCACCCAUGUAAC [theeternabot_exclusion_MS2_Theo_A_35] | 28.4 |  | 40.6 |  | 38.6
21 | CACUACAUGAGGAUCACCCAUGUCUUCCGACGAGGACCGGUACGGCCGCCACUCGAACCUCCAACUAAUACCUCAACCGUCUGAU [theeternabot_sameState_MS2_Trp_A_25] | 36.5 |  | 110 | 101 | 
22 | AUACAUGAGGAUCACCCAUGUCAUUCAGAAGGAGCGUCAUUUUAGACAGGUAGGUCGCUGAUAGUAUUUUUAUACUUUAUGUUUA [JR_SSArginiA_Sub015] | 19.5 | 20.3 | 29.3 | 23.3 | 21.6
23 | ACGCGCAGCAGAAGGAGCGUCUUAAUUCUACAUGAGGAUCACCCAUGUUUACAUUGGAUAUGACAGGUAGGUCGCUGGUGUGCGA [#06 Same State - Arginine B] | 15.9 | 18 | 18.1 | 19.6 | 15.6
24 | ACAUGAGGGCGAAGGAGCGCGAACAUGAGGAUCACCCAUGUGUAUGUAUGUUGUCAUGUAUCGCAGGUAGGUCGCGCUGUUACAU [Exclusion Arginine B] | 90.1 | 233 | 245 | 341 | 307
25 | AAGAGACAUGAGGAUCACCCAUGUGUUGAUACCAGAAACACAAAGUUCCCUUGGCAGCAAAUCUGAGCGAAACGAUCUAGAGCGC [theeternabot_sameState_MS2_Theo_A_30] | 43.3 |  | 84.9 |  | 70.6
26 | AGUCUUAAUGGAAGGAGCGCAGUCAUAACAUGAGGAUCACCCAUGUCGAGGUGAGGGUCAUUGCAGGUAGGUCGCCAUACUAAGA [Same State - Arginine B (Freestyle 3)] | 125 | 199 | 220 | 265 | 245
27 | GGUGGCGUGACGGAUACCAGCCACCACCGAUAGACCACAUGAGGAUCACCCAUGUUGGGUGGCCCUUGGCAGCUGUCGUGCGGCG [#1 Same State - Theophylline B Attempt #17 (HarryS)] | 82 |  | 409 |  | 220
28 | GAUUUAACAAAAGUUGGAUCAGUGGGUGAACGAGGACCGGUACGGCCGCCACUCGGACAUGAGGAUCACCCAUGUCCAUGUGAAA [AstrosExyTryA#19] | 47.2 | 129 | 167 | 121 | 77.1
29 | ACAUGAGGGAUGGAUACCAGCGACAUGAGGAUCACCCAUGUAUGAGGAUCAGCCAUGUUAUGCCCUUGGCAGCCACGAACAUCAG [EDEMULLIN] | 27.3 |  | 45.2 |  | 29.8
